Assays:
[1] = target: T1, RXFP1_((1–72)) (human); experiment: NMR titration; 2D 1H-15N HSQC; 50 μM 15N-labelled RXFP1(1–72) titrated with 25-500 μM H2 relaxin; 50 mM imidazole, 10 mM CaCl2, pH 6.8, 25 °C; fit of the shifts of Asp51, Ala55 and Thr61
T1 sequence (Q9HBX9 1-72, looked up): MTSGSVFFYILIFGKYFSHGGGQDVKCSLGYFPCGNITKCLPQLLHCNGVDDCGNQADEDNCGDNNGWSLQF

[2] = target: RXFP1 Y58A, full length (human)
[3] = target: RXFP1 G45A, full length (human)
[4] = target: RXFP1 F54A/Y58A, full length (human)
[5] = target: RXFP1 N44A, full length (human)
[6] = target: RXFP1 A55S, full length (human)
[7] = target: RXFP1 Q49A/F50A, full length (human)
[8] = target: RXFP1 E67A, full length (human)
[9] = target: RXFP1 T61A, full length (human)
[10] = target: T2, RXFP1 A68^Δ, full length (human) (UniProt Q9HBX9)
T2 sequence: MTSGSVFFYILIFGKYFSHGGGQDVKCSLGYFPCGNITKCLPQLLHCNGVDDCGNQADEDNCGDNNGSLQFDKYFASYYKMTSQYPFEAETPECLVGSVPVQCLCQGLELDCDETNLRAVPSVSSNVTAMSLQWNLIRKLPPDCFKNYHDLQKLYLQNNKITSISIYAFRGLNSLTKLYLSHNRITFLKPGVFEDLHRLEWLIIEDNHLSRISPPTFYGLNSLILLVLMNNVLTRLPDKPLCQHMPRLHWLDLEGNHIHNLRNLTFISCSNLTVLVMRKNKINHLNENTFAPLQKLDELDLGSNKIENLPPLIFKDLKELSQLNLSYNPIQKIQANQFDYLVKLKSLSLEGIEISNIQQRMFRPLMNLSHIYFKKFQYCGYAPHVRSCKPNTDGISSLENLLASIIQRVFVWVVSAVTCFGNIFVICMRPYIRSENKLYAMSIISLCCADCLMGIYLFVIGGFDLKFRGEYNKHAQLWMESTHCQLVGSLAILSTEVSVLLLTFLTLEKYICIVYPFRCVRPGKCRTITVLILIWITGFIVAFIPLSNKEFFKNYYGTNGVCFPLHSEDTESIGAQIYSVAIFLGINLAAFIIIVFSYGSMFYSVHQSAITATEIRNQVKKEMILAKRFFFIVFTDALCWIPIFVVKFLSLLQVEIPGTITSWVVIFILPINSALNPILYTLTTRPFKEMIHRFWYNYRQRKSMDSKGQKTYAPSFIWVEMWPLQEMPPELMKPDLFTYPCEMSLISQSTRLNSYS

[11] = target: RXFP1 K52A, full length (human)
[12] = target: RXFP1 E67A^ins, full length (human)
[13] = target: RXFP1 F50A^ins, full length (human)
[14] = target: RXFP1 F50A, full length (human)
[15] = target: RXFP1 G41A, full length (human)
[16] = target: RXFP1 W46A, full length (human)
[17] = target: RXFP1 N43A, full length (human)
[18] = target: RXFP1 F54A, full length (human)
[19] = target: T3, RXFP1 D51A, full length (human)
T3 sequence (Q9HBX9 1-757 with D51A, looked up): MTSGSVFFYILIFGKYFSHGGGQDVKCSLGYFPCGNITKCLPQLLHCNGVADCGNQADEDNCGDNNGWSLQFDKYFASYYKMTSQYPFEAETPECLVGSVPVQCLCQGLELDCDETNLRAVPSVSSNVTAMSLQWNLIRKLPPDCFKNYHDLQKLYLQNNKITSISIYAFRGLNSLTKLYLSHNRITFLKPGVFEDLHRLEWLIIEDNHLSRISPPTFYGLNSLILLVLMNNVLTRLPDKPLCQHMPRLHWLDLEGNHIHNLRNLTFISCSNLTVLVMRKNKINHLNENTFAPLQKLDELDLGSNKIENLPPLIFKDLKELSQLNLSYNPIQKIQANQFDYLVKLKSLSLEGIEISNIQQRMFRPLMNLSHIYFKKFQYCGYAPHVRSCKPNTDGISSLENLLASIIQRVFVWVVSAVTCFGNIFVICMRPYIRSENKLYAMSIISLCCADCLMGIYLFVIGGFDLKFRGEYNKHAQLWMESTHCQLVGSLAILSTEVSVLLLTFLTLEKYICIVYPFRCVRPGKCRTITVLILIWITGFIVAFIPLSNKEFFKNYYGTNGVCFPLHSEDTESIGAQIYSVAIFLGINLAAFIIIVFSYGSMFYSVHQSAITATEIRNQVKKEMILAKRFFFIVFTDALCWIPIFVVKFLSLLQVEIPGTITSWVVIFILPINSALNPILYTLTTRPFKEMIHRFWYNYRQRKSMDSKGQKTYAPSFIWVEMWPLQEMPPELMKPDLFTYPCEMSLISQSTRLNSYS

[20] = target: RXFP1 A55L, full length (human)
[21] = target: RXFP1 N43A/N44A, full length (human)
[22] = target: RXFP1 D42A, full length (human)
[23] = target: RXFP1 Y57A, full length (human)
[24] = target: RXFP1 M60A, full length (human)
[25] = target: RXFP1 S47A/L48A, full length (human)
[26] = target: RXFP1 F66A, full length (human)
[27] = target: relaxin family peptide receptor-1 (RXFP1), wild type, full length (human) (UniProt Q9HBX9)

B1: H2 relaxin (ligand, human)
chain 1: QLYSALANKCCHVGCTKRSLARFC
chain 2: DSWMEEVIKLCGRELVRAQIAICGMSTWS
In the case of B1, the Kd [1] is reported as 200 µM, the H2 relaxin-induced cAMP response (pCRE β-galactosidase reporter, HEK293T), pEC50 [2] is reported as 10.9 pEC50 and the H2 relaxin-induced cAMP response (pCRE β-galactosidase reporter, HEK293T), pEC50 [3] is reported as 7.48 pEC50. The H2 relaxin-induced cAMP response (pCRE β-galactosidase reporter, HEK293T), pEC50 [4] was 9.87 pEC50, the H2 relaxin-induced cAMP response (pCRE β-galactosidase reporter, HEK293T), pEC50 [5] was 11 pEC50 and the H2 relaxin-induced cAMP response (pCRE β-galactosidase reporter, HEK293T), pEC50 [6] was 11.4 pEC50. For the same binder, the H2 relaxin-induced cAMP response (pCRE β-galactosidase reporter, HEK293T), pEC50 [7] was 9.17 pEC50, the H2 relaxin-induced cAMP response (pCRE β-galactosidase reporter, HEK293T), pEC50 [8] was 11.1 pEC50 and the H2 relaxin-induced cAMP response (pCRE β-galactosidase reporter, HEK293T), pEC50 [9] was 11.2 pEC50. The H2 relaxin-induced cAMP response (pCRE β-galactosidase reporter, HEK293T), pEC50 [10] was 11.2 pEC50, the H2 relaxin-induced cAMP response (pCRE β-galactosidase reporter, HEK293T), pEC50 [11] was 11.1 pEC50 and the H2 relaxin-induced cAMP response (pCRE β-galactosidase reporter, HEK293T), pEC50 [12] was 11.3 pEC50. For the same binder, the H2 relaxin-induced cAMP response (pCRE β-galactosidase reporter, HEK293T), pEC50 [13] was 9.41 pEC50, the H2 relaxin-induced cAMP response (pCRE β-galactosidase reporter, HEK293T), pEC50 [14] was 9.45 pEC50 and the H2 relaxin-induced cAMP response (pCRE β-galactosidase reporter, HEK293T), pEC50 [15] was 11.1 pEC50. It also gave an H2 relaxin-induced cAMP response (pCRE β-galactosidase reporter, HEK293T), pEC50 [16] of 7.02 pEC50, an H2 relaxin-induced cAMP response (pCRE β-galactosidase reporter, HEK293T), pEC50 [17] of 9.06 pEC50 and an H2 relaxin-induced cAMP response (pCRE β-galactosidase reporter, HEK293T), pEC50 [18] of 10.2 pEC50. It also gave an H2 relaxin-induced cAMP response (pCRE β-galactosidase reporter, HEK293T), pEC50 [19] of 11 pEC50, an H2 relaxin-induced cAMP response (pCRE β-galactosidase reporter, HEK293T), pEC50 [20] of 10.8 pEC50 and an H2 relaxin-induced cAMP response (pCRE β-galactosidase reporter, HEK293T), pEC50 [21] of 8.29 pEC50. The H2 relaxin-induced cAMP response (pCRE β-galactosidase reporter, HEK293T), pEC50 [22] was under 6 pEC50, the H2 relaxin-induced cAMP response (pCRE β-galactosidase reporter, HEK293T), pEC50 [23] was 10.9 pEC50 and the H2 relaxin-induced cAMP response (pCRE β-galactosidase reporter, HEK293T), pEC50 [24] was 11.2 pEC50. The H2 relaxin-induced cAMP response (pCRE β-galactosidase reporter, HEK293T), pEC50 [25] was 11.1 pEC50, the H2 relaxin-induced cAMP response (pCRE β-galactosidase reporter, HEK293T), pEC50 [26] was 11.2 pEC50 and the H2 relaxin-induced cAMP response (pCRE β-galactosidase reporter, HEK293T), pEC50 [27] was 11 pEC50.

Source: PMC4837482, “The complex binding mode of the peptide hormone H2 relaxin to its receptor RXFP1” (Nature Communications, 2016)
